The labels stand for the following.
T1: human Lis1, wild type (human, UniProt P43034 2-410)
T1 sequence: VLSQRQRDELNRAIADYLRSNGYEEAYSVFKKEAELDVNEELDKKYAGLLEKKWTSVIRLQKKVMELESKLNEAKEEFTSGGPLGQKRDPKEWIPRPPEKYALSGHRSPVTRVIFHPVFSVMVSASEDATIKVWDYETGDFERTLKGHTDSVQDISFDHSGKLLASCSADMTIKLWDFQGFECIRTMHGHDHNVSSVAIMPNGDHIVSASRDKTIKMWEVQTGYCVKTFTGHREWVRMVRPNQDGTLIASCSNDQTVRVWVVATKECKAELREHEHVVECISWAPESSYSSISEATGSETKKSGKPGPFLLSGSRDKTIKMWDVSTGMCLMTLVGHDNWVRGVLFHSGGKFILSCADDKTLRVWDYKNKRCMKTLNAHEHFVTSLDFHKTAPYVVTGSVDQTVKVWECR

B1: Lis1^AAA5 (Lis1 M172K, D192K, Y225A, C226D) (natural protein)
chain: T1 sequence with M171K, D191K, Y224A, C225D
B2: human Nde1 (N-terminal residues 1-190) (domain or fragment)
chain: MEDSGKTFSSEEEEANYWKDLAMTYKQRAENTQEELREFQEGSREYEAELETQLQQIETRNRDLLSENNRLRMELETIKEKFEVQHSEGYRQISALEDDLAQTKAIKDQLQKYIRELEQANDDLERAKRATIMSLEDFEQRLNQAIERNAFLESELDEKENLLESVQRLKDEARDLRQELAVQQKQEKPR
B3: Lis1^AAA6 (Lis1 N203K, D205K, Q222A) (natural protein)
chain: T1 sequence with N202K, D204K, Q221A
B4: Lis1^linker (Lis1 E300K, K303E, S304R, M329A) (natural protein)
chain: T1 sequence with E299K, K302E, S303R, M328A

Positions count from the first letter of the chain named. In names and notes the source's numbering stands.

Data set [1] addresses full-length human dynein (cytoplasmic dynein-1), wild type (human) (UniProt Q14204). In words: mass photometry.
Data set [2] has the same target. In words: cryo-EM structure.
The data set “mass photometry” concerns the molecule itself. As to the kind of experiment: mass photometry.
In data set [3] the target is B1. As to the kind of experiment: mass photometry.
For data set [4], the target named is B4. As to the kind of experiment: mass photometry.
Data set [5] concerns the target B3. In words: mass photometry.
Another data set has as its target T1, human Lis1, wild type. As to the kind of experiment: mass photometry.

As for “human Lis1, wild type (from UniProt P43034 2-410) (natural protein)”, in data set [1], the percent of 1:1 dynein:Lis1 complex turned out to be 37%, the percent of complex formation was determined as 69%, the stoichiometry N (Lis1 dimer per dynein) was found to be 1 and the stoichiometry N (Lis1 per dynein) came to 1. For the same molecule, in data set [2], the percent of autoinhibited dynein particles in Phi^L-Lis1 worked out at 57.3% and the stoichiometry N (Lis1 dimer per dynein) was 1.
On to B1, for which, in “mass photometry”, the “stoichiometry N” value is 2.
Take B2: the binding result in data set [3] was “binds”; in data set [4], “binds”; in data set [5], “binds”; with human Lis1, wild type, “binds”.
As to B3, in “mass photometry”, the “stoichiometry N” value was 2.
For the molecule B4, the “stoichiometry N” value in the data set “mass photometry” amounted to 2.

In general, stoichiometry N refers to a count of units in the complex or per binding partner.

Source of the values: article PMC11722290 (bioRxiv, 2025).
